These results are taken from US20120220492A1.

One experiment deals with antibody against c-kit. The experiment in a line: cell-based or functional assay.
In another experiment the target is antibody against CD29. As to the kind of experiment: cell-based or functional assay.

Turning to “AAV mosaic composed of 50% mutant capsid proteins with a Protein A fragment (Z34C) insertion at position 587 (from UniProt P03135 1-735; P03135 139-735; P03135 203-735; P03135 139-735; P03135 203-735)”, the infectivity on MO7E cells (fold lower than the 25% virus) in the experiment with antibody against c-kit worked out at 3. This substance also returned an infectivity on Jurkat cells (fold lower than the 25% virus) with antibody against CD29 of 2.

In the experiment with antibody against c-kit, “AAV mosaic composed of 25% mutant capsid proteins with a Protein A fragment (Z34C) insertion at position 587 (from UniProt P03135 1-735; P03135 139-735; P03135 203-735; P03135 139-735; P03135 203-735)” registered a transduction efficiency on MO7E cells of 10 fold and a transduction efficiency on MO7E cells (fold higher than wildtype) of 100. The substance also registered a transgene expression with antibody against c-kit (scale: fold higher than virus with wildtype capsid) of 100. For the same substance, the transgene expression with antibody against c-kit (scale: times higher than virus with wildtype capsid) was found to be 100000. In the experiment with antibody against CD29 (scale: times higher than virus with a wildtype capsid), this substance yielded an infectious titers on Jurkat cells (GFP positive cells by FACS) of 2 to 3.
